Where two headings read alike, the source gives them in different places. Blank lines part the entries; values can stand above or below the binder they belong to.
What was measured:
Zanolimumab mutant FR1 [1] = biological target: T1, Zanolimumab mutant FR1; test: flow cytometry, % parent (FITC), CHO cells expressing zanolimumab mutant FR1
T1 construct: also called Zano FR1
Protocol: (§1) For FACS evaluation, cells were assayed in PBS with 0.5% BSA and 2 mM EDTA. […] Cells were incubated with a secondary anti-mouse FITC antibody for 20 mins at 4° C. FITC readout was measured by FACS.

zanolimumab [2] = biological target: T2, zanolimumab; test: flow cytometry, EC50 of % parent (FITC), CHO cells overexpressing surface zanolimumab (Zano)
T2 construct: VH4-34-containing antibody used as the antigen, overexpressed on the surface of CHO cells; also called Zano.hIgG1
Protocol: as §1

Tabalumab mutant FR1 [3] = biological target: T3, Tabalumab mutant FR1; test: flow cytometry, % parent (FITC), CHO cells expressing tabalumab mutant FR1
T3 construct: also called Taba FR1
Protocol: as §1

tabalumab [4] = test: flow cytometry, EC50 of % parent (FITC), CHO cells overexpressing surface tabalumab (TABA)
Protocol: (§2) FACS was performed according to standard protocols. Briefly, cells were assayed in PBS with 0.5% BSA and 2 mM EDTA. […] Following this, cells were incubated with a secondary anti-mouse FITC antibody for 30 mins at 4° C. FITC readout was measured by FACS on a benchtop flow cytometer.

tabalumab [5] = test: flow cytometry, EC50 of % parent (FITC), CHO cells overexpressing surface tabalumab (Taba)
Protocol: as §1

IGM-55.5 = biological target: T4, IGM-55.5; test: ELISA on plate-coated IGM-55.5 (1 ug/ml), detection with HRP goat anti-mouse IgG
T4 construct: Cold agglutinin antibody coated on the plate in the ELISA
Protocol: Plate was washed 3× with TBS+0.1% Tween 20. […] A secondary antibody (HRP-conjugated goat anti-mouse IgG) was prepared at 1:5000 dilution in blocking buffer and added to the plate with 1 hr incubation RT. TMB ELISA substrate was added and incubated for 15 mins at RT in the dark, before adding the stop solution. The absorbance was read at 450 nm.

3A6 mutant FR1 [6] = biological target: T5, 3A6 mutant FR1; test: flow cytometry, % parent (FITC), CHO cells expressing 3A6 mutant FR1
T5 construct: also called 3A6 FR1; 3A6-FR1 (VH4-34 FR1 mutant)
Protocol: as §2

[7] = biological target: T6, antibodies containing VH4-34 endogenously expressed by cell line OCI-Ly3; test: flow cytometry, EC50 of % parent (PE), OCI-Ly3 cells endogenously expressing VH4-34
T6 construct: Whole, on cells; also called VH4-34-expressing cell line OCI-Ly3
Protocol: (§3) FACS was performed according to standard protocols. Briefly, cells were assayed in PBS with 0.5% BSA and 2 mM EDTA. Live dead staining was performed with a live dead cell dye for 15 minutes at 4° C. […] Following this, cells were incubated with a secondary PE goat anti-mouse IgG for 30 mins at 4° C. and PE readout was measured.

3A6 [8] = biological target: T7, 3A6; test: flow cytometry, EC50 of % parent (FITC), CHO cells overexpressing surface 3A6
T7 construct: also called 3A6 antibody (containing VH4-34 antigen); 3A6 (VH4-34 antigen)
Protocol: as §2

3A6 [9] = biological target: T7, 3A6; test: as above; remark: listed apart in the source
Protocol: as §1

zanolimumab [10] = biological target: T2, zanolimumab; test: flow cytometry, EC50 of % parent (FITC), CHO cells overexpressing surface zanolimumab (ZANO)
Protocol: as §2

zanolimumab [11] = biological target: T2, zanolimumab; test: flow cytometry, EC50 of % parent (FITC), CHO cells overexpressing surface zanolimumab (Zano); curve in FIG. 1A reaches only about 45 % parent
Protocol: as §2

Zanolimumab mutant FR1 [12] = biological target: T1, Zanolimumab mutant FR1; test: flow cytometry, % parent (FITC), CHO cells expressing zanolimumab mutant FR1; remark: listed apart in the source
Protocol: as §2

tabalumab [13] = test: flow cytometry, EC50 of % parent (FITC), CHO cells overexpressing surface tabalumab (Taba); remark: listed apart in the source
Protocol: as §2

3A6 [14] = biological target: T7, 3A6; test: flow cytometry, EC50 of % parent (FITC), CHO cells overexpressing surface 3A6; remark: listed apart in the source
Protocol: as §2

Tabalumab mutant FR1 [15] = biological target: T3, Tabalumab mutant FR1; test: flow cytometry, % parent (FITC), CHO cells expressing tabalumab mutant FR1; remark: listed apart in the source
Protocol: as §2

Zanolimumab mutant FR1 [16] = biological target: T1, Zanolimumab mutant FR1; test: flow cytometry, % parent (FITC), CHO cells expressing zanolimumab mutant FR1; remark: listed apart in the source
Protocol: as §2

Zanolimumab mutant FR1 [17] = biological target: T1, Zanolimumab mutant FR1; test: flow cytometry, EC50 of % parent (FITC), CHO cells expressing zanolimumab mutant FR1 (ZANO FR1); curve in FIG. 2A reaches about 95 % parent
Protocol: as §2

Tabalumab mutant FR1 [18] = biological target: T3, Tabalumab mutant FR1; test: flow cytometry, EC50 of % parent (FITC), CHO cells expressing tabalumab mutant FR1 (TABA FR1); curve in FIG. 2A levels at only about 15 % parent
Protocol: as §2

[19] = biological target: T6, antibodies containing VH4-34 …; test: flow cytometry, EC50 of % parent (PE), OCI-Ly3 cells endogenously expressing VH4-34; curve in FIG. 4A reaches only about 40 % parent
Protocol: as §3

3A6 mutant FR1 [20] = biological target: T5, 3A6 mutant FR1; test: flow cytometry, EC50 of % parent (FITC), CHO cells expressing 3A6 mutant FR1 (3A6 FR1); curve in FIG. 2A reaches about 95 % parent
Protocol: as §2

T3 sequence (VH, as listed by the source, chain 1 of 2): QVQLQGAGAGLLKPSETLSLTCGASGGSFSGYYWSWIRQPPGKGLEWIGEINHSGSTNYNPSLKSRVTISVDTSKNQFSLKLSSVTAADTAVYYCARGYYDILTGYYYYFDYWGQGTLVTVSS
T3 sequence (VL, as listed by the source, chain 2 of 2): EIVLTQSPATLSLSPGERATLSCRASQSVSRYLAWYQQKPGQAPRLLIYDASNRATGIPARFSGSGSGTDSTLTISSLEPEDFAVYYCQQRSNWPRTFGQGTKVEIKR
T1 sequence (VH, as listed by the source, chain 1 of 2): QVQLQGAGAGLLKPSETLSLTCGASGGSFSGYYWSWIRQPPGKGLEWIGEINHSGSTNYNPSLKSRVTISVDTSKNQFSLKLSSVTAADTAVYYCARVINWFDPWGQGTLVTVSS
T1 sequence (VL, as listed by the source, chain 2 of 2): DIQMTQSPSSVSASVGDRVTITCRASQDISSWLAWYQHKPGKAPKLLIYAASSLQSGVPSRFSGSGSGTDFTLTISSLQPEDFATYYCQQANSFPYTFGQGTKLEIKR
tabalumab, sequence (VH, as listed by the source, chain 1 of 2): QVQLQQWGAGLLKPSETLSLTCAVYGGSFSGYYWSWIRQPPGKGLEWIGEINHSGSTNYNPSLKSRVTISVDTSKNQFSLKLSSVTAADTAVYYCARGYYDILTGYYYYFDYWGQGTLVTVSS
T5 sequence (VH, as listed by the source, chain 1 of 2): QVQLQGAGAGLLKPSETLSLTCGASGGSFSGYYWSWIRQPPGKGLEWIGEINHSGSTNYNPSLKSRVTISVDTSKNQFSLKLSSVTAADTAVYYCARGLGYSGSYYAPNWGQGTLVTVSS
T5 sequence (VL, as listed by the source, chain 2 of 2): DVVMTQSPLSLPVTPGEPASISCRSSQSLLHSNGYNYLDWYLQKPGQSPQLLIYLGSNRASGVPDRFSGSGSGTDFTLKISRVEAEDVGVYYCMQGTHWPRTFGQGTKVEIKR
T7 sequence (VH, as listed by the source, chain 1 of 2): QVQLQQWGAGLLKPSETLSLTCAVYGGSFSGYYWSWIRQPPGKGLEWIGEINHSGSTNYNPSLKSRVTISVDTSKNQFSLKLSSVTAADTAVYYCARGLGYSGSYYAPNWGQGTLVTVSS
T2 sequence (VH, as listed by the source, chain 1 of 2): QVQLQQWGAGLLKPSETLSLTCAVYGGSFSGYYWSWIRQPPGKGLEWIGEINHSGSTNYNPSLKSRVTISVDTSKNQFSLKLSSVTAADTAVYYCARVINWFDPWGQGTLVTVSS

- EC50 (zanolimumab [2]): 0.00926 nM
- EC50 (tabalumab [4]): 0.0313 nM
- EC50 (tabalumab [5]): 0.00558 nM
- EC50 (read off the curve) (IGM-55.5): ~0.0002 nM
- EC50 [7]: 0.0194 nM
- EC50 (3A6 [8]): 0.0258 nM
- EC50 (3A6 [9]): 0.00751 nM
- EC50 (zanolimumab [10]): 0.0164 nM
B1: D011-7016.IgG2a (antibody)
heavy: EVQLVESGPSLVKPSQTLSLICSVTGDSITSGYWNWVRKFPGNKLEYMGYISYSGSAHYNPSLKSRISITRDTSKNQYYLQLNSMTTEDTATYYCASYSFAYWGQGTLVTVSAASTKGPSVFPLAPSSKSTSGGTAALGCLVKDYFPEPVTVSWNSGALTSGVHTFPAVLQSSGLYSLSSVVTVPSSSLGTQTYICNVNHKPSNTKVDKKVEPKSCDKTHTCPPCPAPELLGGPSVFIFPPKIKDVLMISLSPIVTCVVVDVSEDDPDVQISWFVNNVEVHTAQTQTHREDYNSTLRVVSALPIQHQDWMSGKEFKCKVNNKDLPAPIERTISKPKGSVRAPQVYVLPPPEEEMTKKQVTLTCMVTDFMPEDIYVEWTNNGKTELNYKNTEPVLDSDGSYFMYSKLRVEKKNWVERNSYSCSVVHEGLHNHHTTKSFSRTPGK
light: DIVMTQSPATLSVTPGDSVSLSCRANQSIDNNLHWYQQRSHESPRLLINYASQSISGIPSRFSGSGSGTDFTLSISSVETEDFGMYFCQQSYGWPYTFGGGTKLEIKRTVAAPSVFIFPPSDEQLKSGTASVVCLLNNFYPREAKVQWKVDNALQSGNSQESVTEQDSKDSTYSLSSTLTLSKADYEKHKVYACEVTHQGLSSPVTKSFNRGEC
notes: also called [4]
- binding result (Zanolimumab mutant FR1 [1]): no binding (tested: Log M about -8.1 (about 8e-9 M))
- binding result (Tabalumab mutant FR1 [3]): no binding (tested: Log M about -8.1 (about 8e-9 M))
- binding result (3A6 mutant FR1 [6]): no binding (tested: Log M about -7.2 (about 7e-8 M))

- EC50 (zanolimumab [11]): 3.49 nM
- EC50 (tabalumab [13]): 0.0823 nM
- EC50 (3A6 [14]): 1.52 nM
B2: D011-1E11p.IgG2a (antibody, V domains shown)
VH: EVQLQQSGPELVKPGASMKISCKASGYSFTGSTMNWVKQSPGKNLEWIGLINPYNGGTSYNQKFEGKATLTVDKSSSTAYMELLSLTSVDSAVYYCASRGKNGYDGRDFDCWGQGTSVTVSS
VL: DIVLTQSPLSLPVNIGDQASISCKSTKSLLNSGGFTYLDWYLQKPGQSPQLLIYLVSNRFSGVPDRFSGSGSGTDFTLKISRVEAEDLGVYYCFQSNYFPFTFGSGTKLEIKR
- binding result (Zanolimumab mutant FR1 [12]): no binding (tested: Log M about -7.2 (about 7e-8 M))

- EC50 (tabalumab [4]): 0.0444 nM
- EC50 [7]: 0.273 nM
- EC50 (3A6 [8]): 8.96 nM
- EC50 (zanolimumab [10]): 10.4 nM
B3: D011-6039.IgG2a (antibody, V domains shown)
VH: EVMLVESGGGLVQPGGSLKLSCAASGFTFSSYGMSWVRQTPDKRLELVATINSNGVNTYYPDSVKGRFTISRDNAKNTLYLQMSSLKSEDTAMYYCARVPFDYWGQGTSLTVSS
VL: DIVMTQSPAIMSASLGEKVTMSCRASSSVDYIYWYQQKSDASPKLWIYYTSTLAPGVPARFSGSGSGNSYSLTISSMEGEDAATYYCQQFTSSPWTFGGGTRLEIKR
- binding result (Tabalumab mutant FR1 [15]): no binding (tested: Log M about -7.2 (about 7e-8 M))
- binding result (3A6 mutant FR1 [6]): no binding (tested: Log M about -7.2 (about 7e-8 M))
- binding result (Zanolimumab mutant FR1 [16]): no binding (tested: Log M about -7.2 (about 7e-8 M))

- EC50 (Zanolimumab mutant FR1 [17]): 0.821 nM
- EC50 (Tabalumab mutant FR1 [18]): 3.93 nM
- EC50 (tabalumab [4]): 0.00587 nM
- EC50 [19]: 0.661 nM
- EC50 (3A6 mutant FR1 [20]): 4.8 nM
- EC50 (3A6 [8]): 0.00895 nM
- EC50 (zanolimumab [10]): 0.0043 nM
B4: D011-6040 (antibody, human IgG1, kappa, V domains shown)
VH: EVQLQQSGAEFVRSGASVKLSCTASGFNIKDYYMHWVKQRPEQGLDWIGWIDPENGDADYDPKFQGKATMTADTSSNTAYLHLSSLTSEDAAVYYCNACHYYGYEDAMDYWGQGTSVTVSS
VL: DIQMTQSPSSLSASLGERVSLTCRASQEISGYLSWLQQKPDGTIKRLIYAASTLDSGVPKRFSGSRSGSDYSLTISSLESEDFADYYCLQYAGYPRTFGGGTRLEIKR
notes: also called [3]; D011-6040.IgG2a
